# In patent US20030215899A1, “Reversible oxidation of protein tyrosine phosphatases” (CEPTYR, Inc., priority 2002, published 2003):
# Entries after “also recorded” stand apart in the source; their conditions may differ.
# T1: 70 kDa PTP (SHP-2) (Rattus norvegicus, UniProt P41499)
# T1 construct: endogenous in cells; host or cells: Rat-1 fibroblasts
# T1 sequence (P41499 1-593): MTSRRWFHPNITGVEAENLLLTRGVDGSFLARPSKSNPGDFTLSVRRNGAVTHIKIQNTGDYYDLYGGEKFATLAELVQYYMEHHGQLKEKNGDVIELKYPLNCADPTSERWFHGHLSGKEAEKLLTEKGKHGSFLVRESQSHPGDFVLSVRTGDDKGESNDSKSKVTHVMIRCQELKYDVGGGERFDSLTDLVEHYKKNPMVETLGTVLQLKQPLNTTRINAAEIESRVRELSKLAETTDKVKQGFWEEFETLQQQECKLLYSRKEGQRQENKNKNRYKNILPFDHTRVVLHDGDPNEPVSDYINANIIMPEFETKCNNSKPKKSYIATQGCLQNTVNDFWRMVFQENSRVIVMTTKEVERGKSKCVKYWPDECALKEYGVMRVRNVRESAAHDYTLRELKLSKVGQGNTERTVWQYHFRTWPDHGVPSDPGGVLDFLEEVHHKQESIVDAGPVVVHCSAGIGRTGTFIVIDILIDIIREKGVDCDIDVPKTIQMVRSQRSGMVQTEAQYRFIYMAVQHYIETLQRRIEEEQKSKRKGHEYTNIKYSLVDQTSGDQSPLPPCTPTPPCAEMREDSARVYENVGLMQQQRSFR
# Columns and labels:
# [1] = system: intracellular ROS in Rat-1 cells; assay: ROS-induced DCF fluorescence (microscopy, flow cytometry); assay type: cell-based; conditions: 20 μM CM-H2DCFDA, growth factor 50 ng/ml, 10 mins
# Procedure: The effects of H2O2 and t-BHP on inactivation of PTPs and activation of MAPK signaling pathways were next compared in a cellular context. Intracellular ROS were measured using 2′,7′-dichlorofluorescein diacetate (H2DCFDA) and 5-(and-6)-chloromethyl-2′,7′-dichlorodihydrofluorescein diacetate (CM-H2DCFDA) (all fluorescent ROS indicators from Molecular Probes, Eugene, Oreg.) either by fluorescence microscopy, using a Zeiss Axiovert 405M inverted microscope equipped with a fluorescence attachment and digital camera, or by cell sorting, using a FACSCalibur System ([…].), according to the manufacturer's recommendations. […] Images of ROS-induced DCF fluorescence are shown at magnification 400× (FIG. 3B upper panel). Cells (1×10^5) that underwent the same treatment as above were harvested and resuspended in Hanks' solution, then immediately subjected to flow cytometric analysis to measure ROS-induced DCF fluorescence. The basal peak indicates background fluorescence, whereas the rightward shifted peak indicates ROS-induced DCF fluorescence (FIG. 3B, lower panels). […]
# Rat-1 cells were incubated with 20 μM CM-H2DCFDA in the dark for 20 mins, then exposed to peptide growth factors (50 ng/ml) for an additional 10 mins. Images of ROS-induced DCF fluorescence are shown at 50× magnification. […]
# 70 kDa PTP (SHP-2) = target: T1, 70 kDa PTP (SHP-2); assay: modified in-gel PTP assay, growth factor stimulated Rat-1 cells; assay type: cell-based
# Description: To determine whether ROS stimulated intracellular tyrosine phosphorylation through the oxidation and inhibition of cellular PTPs, a modified in-gel PTP activity assay was devised, as follows: As substrate, poly (4:1) Glu-Tyr (Sigma) was labeled with [γ-^32P]-ATP using the GST-FER fusion PTK, as described previously (Shen et al., 1998 J. Biol. Chem. 273:6474-81). The labeled substrates were used within three weeks to limit the variation of its specific activity from experiment to experiment. The lysis buffer (25 mM CH3COONa, 1% NP-40, 150 mM NaCl, 10% glycerol, pH 5.5) was degassed at 4° C. for overnight, before catalase and superoxide dismutase (both 100 μg/ml), protease inhibitors and 10 mM iodoacetic acid (IAA) were added. Following stimulation, cells were lysed under anaerobic conditions in an argon chamber. Lysates (25 μg) were processed as described herein and an “in-gel” phosphatase assay (Burridge and Nelson, 1995) was conducted using SDS-PAGE gels containing a radioactively-labeled substrate (1.5×10^6 cpm/20 ml gel solution, approximately 2 μM p-Tyr).
# Cells were triggered with the appropriate stimulus and harvested under anaerobic conditions in lysis buffer containing IAA. Those PTPs that had not encountered ROS in the cell became irreversibly inactivated by alkylation of their active site Cys with IAA. However, in contrast, any PTPs in which the active site Cys had been oxidized in response to the stimulus were resistant to alkylation. For the “in-gel” phosphatase assay, a 10% SDS-PAGE gel was cast containing a radioactively-labeled substrate. An aliquot of cell lysate was subjected to SDS-PAGE and proteins in the gel were sequentially denatured, then renatured in the presence of reducing reagents. […] The reaction was then terminated by fixing, staining and destaining the gel. Finally the gel was dried and exposed to film. […]
# As described above, treatment of Rat-1 cells with H2O2 led to inactivation of multiple PTPs (FIGS. 2-3). […] Lysates of PDGF-stimulated Rat-1 cells were then analyzed using the modified in-gel PTP activity assay described above. […]
# MAPK = assay: anti-phospho-MAPK / anti-MAPK immunoblot; assay type: cell-based, Rat; conditions: peptide growth factors, Rat-1 cells
# Procedure: For immunoprecipitation, cells were rinsed with ice-cold PBS, then lysed in ice-cold 20 mM Hepes (pH 7.5), 1% NP-40, 150 mM NaCl, 10% glycerol, 200 μM […] and protease inhibitors (25 μg/ml of aprotinin and leupeptin). […] The anti-pTyr antibody G104 was described previously (Garton et al., 1997 Oncogene 15, 877-885). Anti-PDGFRββ antibody (Ab-X) was a gift from Dr. Daniel DiMaio at Yale University (Irusta and DiMaio, 1998 EMBO J. 17, 6912-6923). Anti-human G-CSF receptor (G-CSFR) antibody was provided by Dr. Toshio Hirano at Osaka University, Japan (Fukada et al., 1996 Immunity 5, 449-460). Lysate (400 μg) was incubated with 5 μg of antibody conjugated to protein A/G-Sepharose (Amersham Pharmacia, Arlington Heights, Ill.) for 2 hours at 4° C. For immunoblotting, aliquots of total lysates (30 μg per sample) or immunoprecipitates were subjected to SDS-PAGE and transferred to nitrocellulose filters, which were incubated with appropriate primary and secondary antibodies and the specific signals were visualized by the ECL detection system (Amersham Pharmacia).
Molecule,production of intracellular ROS [1],"oxidation and inhibition of SHP-2 (70 kDa PTP (SHP-2); peptide growth factors, lysis with 10 mM IAA)",activation of MAPK (MAPK),oxidation and inactivation of SHP-2 (70 kDa PTP (SHP-2); Rat-1 cells transfected with WT G-CSFR/PDGFR chimeric receptor),oxidation of SHP-2 (70 kDa PTP (SHP-2); Rat-1 cells transfected with Y1009F mutant G-CSFR/PDGFR chimeric receptor)
"EGF: peptide growth factor (protein, UniProt P01133 23-1207, looked up, Pro-epidermal growth factor) Pro-epidermal growth factor: PQHWSCPEGTLAGNGNSTCVGPAPFLIFSHGNSIFRIDTEGTNYEQLVVDAGVSVIMDFHYNEKRIYWVDLERQLLQRVFLNGSRQERVCNIEKNVSGMAINWINEEVIWSNQQEGIITVTDMKGNNSHILLSALKYPANVAVDPVERFIFWSSEVAGSLYRADLDGVGVKALLETSEKITAVSLDVLDKRLFWIQYNREGSNSLICSCDYDGGSVHISKHPTQHNLFAMSLFGDRIFYSTWKMKTIWIANKHTGKDMVRINLHSSFVPLGELKVVHPLAQPKAEDDTWEPEQKLCKLRKGNCSSTVCGQDLQSHLCMCAEGYALSRDRKYCEDVNECAFWNHGCTLGCKNTPGSYYCTCPVGFVLLPDGKRCHQLVSCPRNVSECSHDCVLTSEGPLCFCPEGSVLERDGKTCSGCSSPDNGGCSQLCVPLSPVSWECDCFPGYDLQLDEKSCAASGPQPFLLFANSQDIRHMHFDGTDYGTLLSQQMGMVYALDHDPVENKIYFAHTALKWIERANMDGSQRERLIEEGVDVPEGLAVDWIGRRFYWTDRGKSLIGRSDLNGKRSKIITKENISQPRGIAVHPMAKRLFWTDTGINPRIESSSLQGLGRLVIASSDLIWPSGITIDFLTDKLYWCDAKQSVIEMANLDGSKRRRLTQNDVGHPFAVAVFEDYVWFSDWAMPSVMRVNKRTGKDRVRLQGSMLKPSSLVVVHPLAKPGADPCLYQNGGCEHICKKRLGTAWCSCREGFMKASDGKTCLALDGHQLLAGGEVDLKNQVTPLDILSKTRVSEDNITESQHMLVAEIMVSDQDDCAPVGCSMYARCISEGEDATCQCLKGFAGDGKLCSDIDECEMGVPVCPPASSKCINTEGGYVCRCSEGYQGDGIHCLDIDECQLGEHSCGENASCTNTEGGYTCMCAGRLSEPGLICPDSTPPPHLREDDHHYSVRNSDSECPLSHDGYCLHDGVCMYIEALDKYACNCVVGYIGERCQYRDLKWWELRHAGHGQQQKVIVVAVCVVVLVMLLLLSLWGAHYYRTQKLLSKNPKNPYEESSRDVRSRRPADTEDGMSSCPQPWFVVIKEHQDLKNGGQPVAGEDGQAADGSMQPTSWRQEPQLCGMGTEQGCWIPVSSDKGSCPQVMERSFHMPSYGTQTLEGGVEKPHSLLSANPLWQQRALDPPHQMELTQ",ROS production was not detected,not following exposure of these cells to EGF or FGF; also recorded: not by EGF or FGF,activated MAPK to a similar extent,,
"G-CSF: ligand of the G-CSFR/PDGFR chimeric receptors (protein, UniProt P09919 31-207, looked up) Granulocyte …: TPLGPASSLPQSFLLKCLEQVRKIQGDGAALQEKLVSECATYKLCHPEELVLLGHSLGIPWAPLSSCPSQALQLAGCLSQLHSGLFLYQGLLQALEGISPELGPTLDTLQLDVADFATTIWQQMEELGMAPALQPTQGAMPAFASAFQRRAGGVLVASHLQSFLEVSYRVLRHLAQP",,,,rapid oxidation and inactivation of SHP-2,did not induce oxidation of SHP-2
